In one test the target is α4β1 integrin, P13612. Briefly: inhibition of adhesion of Jurkat cells to VCAM-1.
The target of test [1] is human α1β1 integrin (human), P56199. Briefly: inhibition of adhesion of HS.939T cells to collagen IV.
Test [2] shares this target. Briefly: inhibition of adhesion of α1K562 cells to collagen I.
The next test addresses T1, αvβ3 integrin, P06756.
T1 chain 1: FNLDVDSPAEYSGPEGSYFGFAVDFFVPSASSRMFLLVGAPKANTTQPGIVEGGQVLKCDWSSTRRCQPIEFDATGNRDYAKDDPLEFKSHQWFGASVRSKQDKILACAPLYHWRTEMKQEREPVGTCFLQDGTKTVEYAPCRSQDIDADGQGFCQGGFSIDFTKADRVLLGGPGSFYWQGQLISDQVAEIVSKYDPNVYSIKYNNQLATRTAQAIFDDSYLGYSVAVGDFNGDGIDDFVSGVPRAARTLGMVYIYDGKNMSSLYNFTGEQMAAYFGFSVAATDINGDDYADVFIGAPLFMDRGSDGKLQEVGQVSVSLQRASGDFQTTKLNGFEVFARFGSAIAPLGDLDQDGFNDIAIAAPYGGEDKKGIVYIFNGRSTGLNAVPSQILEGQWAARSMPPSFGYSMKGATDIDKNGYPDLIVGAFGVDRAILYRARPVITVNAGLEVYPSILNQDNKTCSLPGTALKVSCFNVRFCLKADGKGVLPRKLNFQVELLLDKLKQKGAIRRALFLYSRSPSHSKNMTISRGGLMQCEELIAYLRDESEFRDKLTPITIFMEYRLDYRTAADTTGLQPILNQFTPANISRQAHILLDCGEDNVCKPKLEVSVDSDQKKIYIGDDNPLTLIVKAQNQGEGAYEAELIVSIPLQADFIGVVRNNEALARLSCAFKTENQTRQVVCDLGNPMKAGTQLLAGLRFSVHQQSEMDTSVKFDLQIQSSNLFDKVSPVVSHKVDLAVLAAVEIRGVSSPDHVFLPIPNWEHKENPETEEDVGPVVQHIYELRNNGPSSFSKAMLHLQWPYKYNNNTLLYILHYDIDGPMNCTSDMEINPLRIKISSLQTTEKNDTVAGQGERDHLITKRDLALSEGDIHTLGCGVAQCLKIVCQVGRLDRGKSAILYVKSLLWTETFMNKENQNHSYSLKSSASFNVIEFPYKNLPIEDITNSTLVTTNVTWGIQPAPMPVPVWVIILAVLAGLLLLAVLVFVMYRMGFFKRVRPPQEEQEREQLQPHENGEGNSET
T1 chain 2: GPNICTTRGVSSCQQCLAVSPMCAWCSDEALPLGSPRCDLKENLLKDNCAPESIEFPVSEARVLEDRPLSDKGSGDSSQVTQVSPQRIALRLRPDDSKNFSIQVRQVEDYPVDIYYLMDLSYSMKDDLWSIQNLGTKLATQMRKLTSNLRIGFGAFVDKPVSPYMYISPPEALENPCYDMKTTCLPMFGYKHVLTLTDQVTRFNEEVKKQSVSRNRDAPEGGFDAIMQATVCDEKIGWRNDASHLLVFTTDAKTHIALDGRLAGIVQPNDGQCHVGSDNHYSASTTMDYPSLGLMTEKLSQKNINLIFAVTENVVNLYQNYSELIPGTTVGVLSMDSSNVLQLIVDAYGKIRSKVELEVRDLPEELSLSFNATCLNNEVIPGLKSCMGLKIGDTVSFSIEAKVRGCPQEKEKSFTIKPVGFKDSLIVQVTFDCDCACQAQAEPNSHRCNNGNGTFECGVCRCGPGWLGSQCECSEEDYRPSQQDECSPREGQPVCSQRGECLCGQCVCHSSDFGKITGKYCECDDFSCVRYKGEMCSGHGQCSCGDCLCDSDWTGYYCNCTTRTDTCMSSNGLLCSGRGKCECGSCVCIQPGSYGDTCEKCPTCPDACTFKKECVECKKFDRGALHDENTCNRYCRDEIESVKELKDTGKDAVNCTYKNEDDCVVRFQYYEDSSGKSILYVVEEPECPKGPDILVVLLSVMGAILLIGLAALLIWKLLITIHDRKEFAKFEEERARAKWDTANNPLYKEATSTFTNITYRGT
Briefly: inhibition of adhesion of JY cells to vitronectin.

In another test the target is α2β1 integrin, P17301. Put plainly: inhibition of adhesion of α2K562 cells to collagen I.
The target of test [3] is human α1β1 integrin (human), P56199. Put plainly: inhibition of adhesion of α1K562 cells to collagen IV.
A further test addresses α9β1 integrin, Q13797. Briefly: inhibition of adhesion of SW480α9 cells to VCAM-1.
Test [4] addresses αIIbβ3 integrin, P08514. Put plainly: inhibition of adhesion of A5 cells to fibrinogen.
The target in test [5] is α5β1 integrin, P08648. Put plainly: inhibition of adhesion of K562 cells to fibronectin.
Target sequence in this assay (P08648 42-1049): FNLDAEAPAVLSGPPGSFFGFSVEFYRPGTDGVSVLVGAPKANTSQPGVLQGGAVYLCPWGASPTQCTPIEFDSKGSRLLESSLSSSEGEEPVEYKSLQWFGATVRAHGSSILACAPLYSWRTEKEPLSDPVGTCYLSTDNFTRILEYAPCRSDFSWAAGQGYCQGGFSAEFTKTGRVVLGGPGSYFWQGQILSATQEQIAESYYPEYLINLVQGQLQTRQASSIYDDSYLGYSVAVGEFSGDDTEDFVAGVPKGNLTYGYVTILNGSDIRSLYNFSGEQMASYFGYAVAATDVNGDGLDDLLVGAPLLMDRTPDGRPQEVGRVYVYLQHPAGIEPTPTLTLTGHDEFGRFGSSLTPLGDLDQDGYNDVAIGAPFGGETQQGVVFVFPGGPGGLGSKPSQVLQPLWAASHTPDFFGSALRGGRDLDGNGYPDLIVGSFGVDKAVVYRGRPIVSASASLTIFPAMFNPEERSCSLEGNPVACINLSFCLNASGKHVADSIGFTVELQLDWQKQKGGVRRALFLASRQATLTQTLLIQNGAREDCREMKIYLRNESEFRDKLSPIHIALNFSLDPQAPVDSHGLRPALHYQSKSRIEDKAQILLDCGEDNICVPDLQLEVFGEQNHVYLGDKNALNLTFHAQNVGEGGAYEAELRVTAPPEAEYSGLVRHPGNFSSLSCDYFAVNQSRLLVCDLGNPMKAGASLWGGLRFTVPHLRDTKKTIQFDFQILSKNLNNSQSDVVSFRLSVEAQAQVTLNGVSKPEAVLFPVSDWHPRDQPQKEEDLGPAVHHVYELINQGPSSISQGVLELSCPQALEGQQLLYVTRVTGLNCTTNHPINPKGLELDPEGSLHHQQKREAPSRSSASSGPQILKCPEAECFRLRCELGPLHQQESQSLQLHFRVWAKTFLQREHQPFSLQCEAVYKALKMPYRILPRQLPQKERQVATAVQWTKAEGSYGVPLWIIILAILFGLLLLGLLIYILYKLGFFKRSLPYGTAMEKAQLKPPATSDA
Test [6] addresses T2, mouse α1β1 integrin (mouse), Q3V3R4.
T2 chain 1: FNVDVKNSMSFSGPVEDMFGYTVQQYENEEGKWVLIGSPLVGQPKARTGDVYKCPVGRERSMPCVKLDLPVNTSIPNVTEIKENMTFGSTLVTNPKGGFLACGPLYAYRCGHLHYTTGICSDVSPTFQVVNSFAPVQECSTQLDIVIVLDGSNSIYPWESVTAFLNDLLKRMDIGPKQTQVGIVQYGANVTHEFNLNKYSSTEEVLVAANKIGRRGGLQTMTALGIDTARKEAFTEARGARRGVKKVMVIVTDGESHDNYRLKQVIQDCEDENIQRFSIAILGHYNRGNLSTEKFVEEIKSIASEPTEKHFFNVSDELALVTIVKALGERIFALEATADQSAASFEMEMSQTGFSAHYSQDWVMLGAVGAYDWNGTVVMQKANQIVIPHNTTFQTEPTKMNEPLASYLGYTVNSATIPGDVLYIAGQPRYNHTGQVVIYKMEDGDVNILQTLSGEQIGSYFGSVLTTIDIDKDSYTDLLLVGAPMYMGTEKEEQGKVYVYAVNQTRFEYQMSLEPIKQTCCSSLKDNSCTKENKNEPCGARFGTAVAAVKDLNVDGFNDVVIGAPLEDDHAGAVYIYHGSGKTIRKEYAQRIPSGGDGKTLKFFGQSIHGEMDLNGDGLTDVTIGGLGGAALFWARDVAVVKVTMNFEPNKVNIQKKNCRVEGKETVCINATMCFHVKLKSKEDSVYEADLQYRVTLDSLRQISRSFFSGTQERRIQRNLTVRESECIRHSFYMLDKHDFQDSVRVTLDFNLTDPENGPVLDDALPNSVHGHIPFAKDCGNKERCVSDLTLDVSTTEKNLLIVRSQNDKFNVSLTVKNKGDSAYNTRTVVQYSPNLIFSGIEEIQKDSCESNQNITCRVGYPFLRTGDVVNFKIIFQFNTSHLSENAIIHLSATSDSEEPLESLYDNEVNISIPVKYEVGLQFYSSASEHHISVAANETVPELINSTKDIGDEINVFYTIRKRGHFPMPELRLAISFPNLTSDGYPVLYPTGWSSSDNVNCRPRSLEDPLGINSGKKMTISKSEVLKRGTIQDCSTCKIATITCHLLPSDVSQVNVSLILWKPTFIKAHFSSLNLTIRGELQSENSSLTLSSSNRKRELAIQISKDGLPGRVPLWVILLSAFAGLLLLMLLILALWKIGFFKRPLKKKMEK
T2 chain 2: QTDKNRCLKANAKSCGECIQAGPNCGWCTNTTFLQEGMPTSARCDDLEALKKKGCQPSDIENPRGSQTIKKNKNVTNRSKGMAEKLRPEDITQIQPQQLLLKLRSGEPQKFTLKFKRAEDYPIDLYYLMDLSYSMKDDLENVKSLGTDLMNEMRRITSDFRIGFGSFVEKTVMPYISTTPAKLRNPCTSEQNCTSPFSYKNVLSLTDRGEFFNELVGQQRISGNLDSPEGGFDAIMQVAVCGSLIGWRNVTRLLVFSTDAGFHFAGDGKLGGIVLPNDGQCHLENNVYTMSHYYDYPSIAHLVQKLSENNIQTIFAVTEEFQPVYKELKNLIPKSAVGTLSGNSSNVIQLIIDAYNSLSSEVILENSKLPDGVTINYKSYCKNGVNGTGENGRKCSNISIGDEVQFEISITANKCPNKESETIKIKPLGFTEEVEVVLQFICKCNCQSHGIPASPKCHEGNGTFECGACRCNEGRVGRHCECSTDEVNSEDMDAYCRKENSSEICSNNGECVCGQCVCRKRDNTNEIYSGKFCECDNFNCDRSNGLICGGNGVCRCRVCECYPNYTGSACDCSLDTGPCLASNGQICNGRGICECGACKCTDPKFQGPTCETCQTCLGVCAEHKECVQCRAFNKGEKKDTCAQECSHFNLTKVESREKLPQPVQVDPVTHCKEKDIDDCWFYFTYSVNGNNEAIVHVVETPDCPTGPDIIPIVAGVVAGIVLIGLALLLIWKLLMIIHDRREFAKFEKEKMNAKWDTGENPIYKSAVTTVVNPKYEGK
Briefly: inhibition of adhesion of B16F10 cells to collagen IV.

Test [7] addresses human α1β1 integrin (human), P56199. Put plainly: inhibition of adhesion of α1K562 cells to immobilised collagen IV.
In test [8] the target is αIIbβ3 integrin, P08514. Briefly: inhibition of adhesion of A5 cells to fibrinogen. The source holds these as a separate data set.
Test [9] has as its target α5β1 integrin, P08648. Briefly: inhibition of adhesion of K562 cells to fibronectin. The source holds these as a separate data set.
Target sequence in this assay (P08648 42-1049, chain 1 of 2): as the sequence (P08648 42-1049) above
Target sequence in this assay (P05556 21-798, chain 2 of 2, further chain): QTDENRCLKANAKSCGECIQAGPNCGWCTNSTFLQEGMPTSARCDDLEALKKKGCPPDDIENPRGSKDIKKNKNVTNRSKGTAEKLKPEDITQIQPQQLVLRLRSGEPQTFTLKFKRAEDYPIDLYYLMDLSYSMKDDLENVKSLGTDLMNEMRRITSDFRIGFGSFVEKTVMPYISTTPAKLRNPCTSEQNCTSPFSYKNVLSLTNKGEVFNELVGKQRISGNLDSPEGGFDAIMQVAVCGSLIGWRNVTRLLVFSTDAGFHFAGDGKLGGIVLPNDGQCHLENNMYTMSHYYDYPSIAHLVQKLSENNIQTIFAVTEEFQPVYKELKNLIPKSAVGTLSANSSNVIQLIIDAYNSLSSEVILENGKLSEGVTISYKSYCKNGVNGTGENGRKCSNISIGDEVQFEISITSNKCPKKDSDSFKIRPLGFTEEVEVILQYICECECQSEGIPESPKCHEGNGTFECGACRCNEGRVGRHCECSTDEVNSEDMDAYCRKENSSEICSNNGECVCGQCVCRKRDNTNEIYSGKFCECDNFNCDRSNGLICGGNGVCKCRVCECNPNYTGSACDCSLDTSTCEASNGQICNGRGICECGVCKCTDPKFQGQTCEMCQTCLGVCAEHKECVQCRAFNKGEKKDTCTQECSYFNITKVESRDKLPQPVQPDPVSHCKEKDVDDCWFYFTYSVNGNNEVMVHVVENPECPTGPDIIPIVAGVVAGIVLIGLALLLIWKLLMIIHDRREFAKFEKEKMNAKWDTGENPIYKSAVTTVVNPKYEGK

Where two headings read alike, the source gives them in different places. Some results are limits rather than exact numbers.

Among the data in patent US20030186334A1, “KTS-disintegrins” (Temple University - Of the Commonwealth System of Higher …, priority 2001, published 2003) are IC50 values, retold here.

Chain of α9β1 integrin, Q13797 (Q13797 30-1035): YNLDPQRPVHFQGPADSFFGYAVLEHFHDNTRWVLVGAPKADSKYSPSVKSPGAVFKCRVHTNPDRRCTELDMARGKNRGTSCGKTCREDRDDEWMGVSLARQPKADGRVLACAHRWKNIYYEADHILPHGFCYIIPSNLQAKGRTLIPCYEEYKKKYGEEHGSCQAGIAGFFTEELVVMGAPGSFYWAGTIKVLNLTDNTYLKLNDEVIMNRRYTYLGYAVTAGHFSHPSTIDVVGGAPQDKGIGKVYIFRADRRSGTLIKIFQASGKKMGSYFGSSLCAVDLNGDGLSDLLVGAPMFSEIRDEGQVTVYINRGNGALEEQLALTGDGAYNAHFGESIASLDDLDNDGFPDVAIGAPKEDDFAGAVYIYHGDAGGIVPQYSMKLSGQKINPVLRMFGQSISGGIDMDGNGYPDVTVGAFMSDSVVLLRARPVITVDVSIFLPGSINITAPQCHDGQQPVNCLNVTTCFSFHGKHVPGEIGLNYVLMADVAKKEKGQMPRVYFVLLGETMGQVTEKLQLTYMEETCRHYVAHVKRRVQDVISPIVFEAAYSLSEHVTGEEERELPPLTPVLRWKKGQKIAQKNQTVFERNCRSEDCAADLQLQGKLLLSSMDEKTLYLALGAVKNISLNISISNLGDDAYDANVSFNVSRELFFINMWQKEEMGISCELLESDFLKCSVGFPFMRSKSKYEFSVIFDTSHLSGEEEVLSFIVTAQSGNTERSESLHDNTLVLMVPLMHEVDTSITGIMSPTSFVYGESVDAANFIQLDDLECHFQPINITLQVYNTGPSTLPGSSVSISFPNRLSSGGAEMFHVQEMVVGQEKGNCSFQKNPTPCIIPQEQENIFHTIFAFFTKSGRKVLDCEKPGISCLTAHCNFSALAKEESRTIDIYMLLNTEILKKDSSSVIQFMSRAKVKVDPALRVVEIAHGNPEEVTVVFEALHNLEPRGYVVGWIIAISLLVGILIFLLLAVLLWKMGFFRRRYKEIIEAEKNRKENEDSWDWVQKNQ

What is called IC50 is the point on the concentration scale where inhibition reaches its midpoint. A low value points to higher potency. Regarding QCESGPCCRNCKFLKEGTICKRARGDDMDDYCNGKTCDCPRNPHKGPAT (modifications not checked) [echistatin, P17347 131-179], the IC50 is over 10 µM with α4β1 integrin, P13612; over 10000 nM in test [1]; over 10000 nM in test [2]; 0.0001 µM in the test with αvβ3 integrin, P06756; over 10 µM with α2β1 integrin, P17301; over 10000 nM in test [3]. Moreover, the IC50 was over 10 µM with α9β1 integrin, Q13797; 0.05 µM with αIIbβ3 integrin, P08514 [4]; 0.05 µM in the test with α5β1 integrin, P08648 [5]; over 10 µM in test [6].
The molecule CWKTSLTSHYC (modifications not checked) [synthetic peptide … (SEQ ID NO: 5)] yielded a half-maximal inhibitory concentration (IC50) in [7] of 600 µM.
For the molecule QEEPCATGPCCRRCKFKRAGKVCRVARGDWNDDYCTGKSCDCPKNPWNG (modifications not checked) [eristostatin, P0C6S4 1-49], the half-maximal inhibitory concentration (IC50) was 0.05 µM with αIIbβ3 integrin, P08514 [8]; over 10 µM with α4β1 integrin, P13612; over 10000 nM in test [1]; over 10000 nM in [2]; 2 µM with αvβ3 integrin, P06756; over 10 µM with α2β1 integrin, P17301. In addition, the IC50 in test [3] was over 10000 nM; with α9β1 integrin, Q13797 it was over 10 µM; in the test with αIIbβ3 integrin, P08514 [4], 0.005 µM; in the test with α5β1 integrin, P08648 [5] it was over 10 µM; in test [6], over 10 µM.
As to CTTGPCCRQCKLKPAGTTCWKTSLTSHYCTGKSCDCPLYPG (modifications not checked) [obtustatin], the IC50 is 0.002 µM in [7]; over 10 µM with α4β1 integrin, P13612; 0.1 nM in test [1]; 0.5 nM in test [2]; over 5 µM with α5β1 integrin, P08648 [9]; over 10 µM with αvβ3 integrin, P06756. Further, the 50% inhibitory concentration (IC50) was over 10 µM with α2β1 integrin, P17301; 2 nM in [3]; over 10 µM in the test with α9β1 integrin, Q13797; over 10 µM in the test with αIIbβ3 integrin, P08514 [4]; over 10 µM with α5β1 integrin, P08648 [5]; 0.0002 µM in [6].
For CTTGPCCRQCKLKPAGTTCWKTSRTSHYCTGKSCDCPVYQG (modifications not checked) [viperisrastatin], the IC50 in the test with αIIbβ3 integrin, P08514 [8] was over 10 µM; in the test with α4β1 integrin, P13612 it was over 10 µM; in [1], 0.002 nM; in test [2], 0.02 nM; in the test with α5β1 integrin, P08648 [9], over 10 µM; in the test with αvβ3 integrin, P06756, over 10 µM. Besides, the IC50 was over 10 µM with α2β1 integrin, P17301; 0.08 nM in [3]; over 10 µM with α9β1 integrin, Q13797; 0.00025 µM in [6].
